Data taken from the supplement of paper PMC11316812.
± gives the standard deviation of the averaged measurements.

Assays:
hTERT-HMEC = assay: percentage of EdU-negative (G0-arrested) nuclei per well, 72 h; higher = more G0 arrest; settings: reference: sequence is the full UniProt precursor, the tested protein was the secreted form or ectodomain
MCF7 = assay: as above; settings: reference: sequence is the full UniProt precursor, the tested protein was the secreted form or ectodomain
[1] = protein concentration 0.0225 µM
[2] = protein concentration 0.0155 µM
[3] = protein concentration 0.02382 µM
[4] = protein concentration 0.03125 µM
[5] = protein concentration 0.2382 µM
[6] = protein concentration 0.3125 µM
[7] = protein concentration 0.00875 µM
[8] = protein concentration 0.0875 µM
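Note: secreted proteins added to cultured cells, EdU pulse at the end, nuclei found by Hoechst imaging, EdU status from nuclear versus surrounding ring intensity ratio, PBS as neutral control.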

For “MGHLSAPLHRVRVPWQGLLLTASLLTFWNPPTTAQLTTESMPFNVAEGKEVLLLVHNLPQQLFGYSWYKGERVDGNRQIVGYAIGTQQATPGPANSGRETIYPNASLLIQNVTQNDTGFYTLQVIKSDLVNEEATGQFHVYPELPKPSISSNNSNPVEDKDAVAFTCEPETQDTTYLWWINNQSLPVSPRLQLSNGNRTLTLLSVTRNDTGPYECEIQNPVSANRSDPVTLNVTYGPDTPTISPSDTYYRPGANLSLSCYAASNPPAQYSWLINGTFQQSTQELFIPNITVNNSGSYTCHANNSVTGCNRTTVKTIIVTELSPVVAKPQIKASKTTVTGDKDSVNLTCSTNDTGISIRWFFKNQSLPSSERMKLSQGNTTLSINPVKREDAGTYWCEVFNPISKNQSDPIMLNVNYNALPQENGLSPGAIAGIVIGVVALVALIAVALACFLHFGKTGRASDQRDLTEHKPSVSNHTQDHSNDPPNKMNEVTYSTLNFEAQQPTQPTSASPSLTATEIIYSEVKKQ”, the “percentage of EdU-negative” value (hTERT-HMEC; [1]) was 5.04 ± 1.4%, the “percentage of EdU-negative” value (hTERT-HMEC; protein concentration 0.225 µM) was 7.07 ± 0.44% and the “percentage of EdU-negative” value (MCF7; [1]) was 24.7 ± 1.3%. For the same sequence, the “percentage of EdU-negative” value (MCF7; protein concentration 0.225 µM) was 26.6 ± 0.95%.
In the case of “MCSRGWDSCLALELLLLPLSLLVTSIQGHLVHMTVVSGSNVTLNISESLPENYKQLTWFYTFDQKIVEWDSRKSKYFESKFKGRVRLDPQSGALYISKVQKEDNSTYIMRVLKKTGNEQEWKIKLQVLDPVPKPVIKIEKIEDMDDNCYLKLSCVIPGESVNYTWYGDKRPFPKELQNSVLETTLMPHNYSRCYTCQVSNSVSSKNGTVCLSPPCTLARSFGVEWIASWLVVTVPTILGLLLT”, the “percentage of EdU-negative” value (hTERT-HMEC; [1]) is reported as 4.77 ± 0.31%, the “percentage of EdU-negative” value (hTERT-HMEC; protein concentration 0.225 µM) is reported as 10.71 ± 0.089% and the “percentage of EdU-negative” value (MCF7; [1]) is reported as 25.8 ± 1.1%. For the same sequence, the “percentage of EdU-negative” value (MCF7; protein concentration 0.225 µM) was 27.8 ± 2%.
With “MVPEVRVLSSLLGLALLWFPLDSHARARPDMFCLFHGKRYSPGESWHPYLEPQGLMYCLRCTCSEGAHVSCYRLHCPPVHCPQPVTEPQQCCPKCVEPHTPSGLRAPPKSCQHNGTMYQHGEIFSAHELFPSRLPNQCVLCSCTEGQIYCGLTTCPEPGCPAPLPLPDSCCQACKDEASEQSDEEDSVQSLHGVRHPQDPCSSDAGRKRGPGTPAPTGLSAPLSFIPRHFRPKGAGSTTVKIVLKEKHKKACVHGGKTYSHGEVWHPAFRAFGPLPCILCTCEDGRQDCQRVTCPTEYPCRHPEKVAGKCCKICPEDKADPGHSEISSTRCPKAPGRVLVHTSVSPSPDNLRRFALEHEASDLVEIYLWKLVKGIFHLTQIKKVRKQDFQKEAQHFRLLAGPHEGHWNVFLAQTLELKVTASPDKVTKT [Q6WN34]” the “percentage of EdU-negative” value (hTERT-HMEC; [2]) was 5.6 ± 0.62%, the “percentage of EdU-negative” value (hTERT-HMEC; protein concentration 0.155 µM) was 7.92 ± 0.96% and the “percentage of EdU-negative” value (MCF7; [2]) was 25.2 ± 1.1%. For the same sequence, the “percentage of EdU-negative” value (MCF7; protein concentration 0.155 µM) was 27.3 ± 1.6%.
In the case of “MSMSPTVIILACLGFFLDQSVWAHVGGQDKPFCSAWPSAVVPQGGHVTLRCHYRRGFNIFTLYKKDGVPVPELYNRIFWNSFLISPVTPAHAGTYRCRGFHPHSPTEWSAPSNPLVIMVTGLYEKPSLTARPGPTVRAGENVTLSCSSQSSFDIYHLSREGEAHELRLPAVPSINGTFQADFPLGPATHGETYRCFGSFHGSPYEWSDPSDPLPVSVTGNPSSSWPSPTEPSFKTGIARHLHAVIRYSVAIILFTILPFFLLHRWCSKKKDAAVMNQEPAGHRTVNREDSDEQDPQEVTYAQLDHCIFTQRKITGPSQRSKRPSTDTSVCIELPNAEPRALSPAHEHHSQALMGSSRETTALSQTQLASSNVPAAGI”, the “percentage of EdU-negative” value (hTERT-HMEC; [1]) is reported as 5.29 ± 1.2%, the “percentage of EdU-negative” value (hTERT-HMEC; protein concentration 0.225 µM) is reported as 4.83 ± 0.51% and the “percentage of EdU-negative” value (MCF7; [1]) is reported as 24.4 ± 3.2%. The “percentage of EdU-negative” value (MCF7; protein concentration 0.225 µM) was 25.68 ± 0.13%.
In the case of “MQRLCVYVLIFALALAAFSEASWKPRSQQPDAPLGTGANRDLELPWLEQQGPASHHRRQLGPQGPPHLVADPSKKQGPWLEEEEEAYGWMDFGRRSAEDEN”, the “percentage of EdU-negative” value (hTERT-HMEC; [3]) is reported as 4.78 ± 0.41%, the “percentage of EdU-negative” value (hTERT-HMEC; [4]) is reported as 4.9 ± 0.48% and the “percentage of EdU-negative” value (hTERT-HMEC; [5]) is reported as 7.18 ± 0.61%. The “percentage of EdU-negative” value (hTERT-HMEC; [6]) was 10.5 ± 2%, the “percentage of EdU-negative” value (MCF7; [3]) was 24.94 ± 0.082% and the “percentage of EdU-negative” value (MCF7; [4]) was 29.3 ± 0.76%. The “percentage of EdU-negative” value (MCF7; [5]) was 27.1 ± 1.1% and the “percentage of EdU-negative” value (MCF7; [6]) was 26.7 ± 1.6%.
For “MLRKGCCVELLLLLVAAELPLGGGCPRDCVCYPAPMTVSCQAHNFAAIPEGIPVDSERVFLQNNRIGLLQPGHFSPAMVTLWIYSNNITYIHPSTFEGFVHLEELDLGDNRQLRTLAPETFQGLVKLHALYLYKCGLSALPAGVFGGLHSLQYLYLQDNHIEYLQDDIFVDLVNLSHLFLHGNKLWSLGPGTFRGLVNLDRLLLHENQLQWVHHKAFHDLRRLTTLFLFNNSLSELQGECLAPLGALEFLRLNGNPWDCGCRARSLWEWLQRFRGSSSAVPCVSPGLRHGQDLKLLRAEDFRNCTGPASPHQIKSHTLTTTDRAARKEHHSPHGPTRSKGHPHGPRPGHRKPGKNCTNPRNRNQISKAGAGKQAPELPDYAPDYQHKFSFDIMPTARPKRKGKCARRTPIRAPSGVQQASSASSLGASLLAWTLGLAVTLR [Q86UN2]”, the “percentage of EdU-negative” value (hTERT-HMEC; [7]) was 5.4 ± 1%, the “percentage of EdU-negative” value (hTERT-HMEC; [8]) was 5.31 ± 0.34% and the “percentage of EdU-negative” value (MCF7; [7]) was 26.2 ± 0.18%. For the same sequence, the “percentage of EdU-negative” value (MCF7; [8]) was 28.6 ± 1.4%.
